In patent US20190375799A1 (Affibody, published 2019):
Where no end group is shown, it is not given here. The star is where a group is joined. Mal‑DOTA = maleimido-mono-amide-DOTA, O=C(O)CN1CCN(CC(=O)O)CCN(CC(=O)NCCN2C(=O)CC(*)C2=O)CCN(CC(=O)O)CC1; maleimide‑DOTA = maleimide-DOTA

Columns and labels:
[1] = target: T1, albumin from cynomolgus monkey (cynomolgus monkey, UniProt A2V9Z4 25-608); experiment: SPR (Biacore 2000): cynomolgus albumin immobilised to 1046 RU, PEP07986 injected at 40 nM for 5 min, then HBS-EP
T1 construct: also called CSA
T1 sequence (A2V9Z4 25-608 limits assumed): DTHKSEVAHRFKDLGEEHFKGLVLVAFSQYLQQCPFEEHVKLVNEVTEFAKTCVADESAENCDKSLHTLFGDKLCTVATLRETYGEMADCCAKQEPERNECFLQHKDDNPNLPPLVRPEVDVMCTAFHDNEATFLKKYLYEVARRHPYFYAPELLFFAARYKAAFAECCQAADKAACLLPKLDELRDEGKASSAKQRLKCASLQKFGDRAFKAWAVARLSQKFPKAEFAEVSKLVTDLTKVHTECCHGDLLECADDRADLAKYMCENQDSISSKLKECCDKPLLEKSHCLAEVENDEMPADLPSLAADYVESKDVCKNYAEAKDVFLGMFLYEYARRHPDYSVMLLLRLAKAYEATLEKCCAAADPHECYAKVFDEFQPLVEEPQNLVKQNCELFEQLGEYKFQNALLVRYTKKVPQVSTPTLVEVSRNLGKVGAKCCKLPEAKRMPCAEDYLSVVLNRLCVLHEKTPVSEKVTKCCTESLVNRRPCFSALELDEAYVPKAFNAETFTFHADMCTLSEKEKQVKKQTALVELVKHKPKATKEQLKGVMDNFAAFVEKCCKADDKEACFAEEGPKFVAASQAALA
Experimental: (§1) The albumin binding polypeptides were injected at a constant flow-rate of 50 μl/min for 5 minutes, followed by injection of HBS-EP for 60 minutes. The surfaces were regenerated with one injection of 25 μl HCl, 10 mM. All samples were run in duplicates.
(§2) After subtraction of reference surface and buffer injection, curves were fitted to a 1:1 (Langmuir) binding model using BIAevaluation software with correction for mass transfer and with RUmax set as a local parameter.

[2] = target: T2, human serum albumin (human, UniProt P02768 25-609); experiment: SPR, Biacore 2000, HSA immobilised
T2 construct: In the purification steps HSA-Sepharose (GE Healthcare) was used instead of ALBUCULT; also called HSA; ALBUCULT (Novozymes)

[3] = target: T3, albumin from rat (rat, UniProt P02770 25-608); experiment: SPR (Biacore 2000): rat albumin immobilised to 831 RU, PEP08296 injected at 40 nM for 5 min, then HBS-EP
T3 construct: also called RSA
T3 sequence (P02770 25-608 limits assumed): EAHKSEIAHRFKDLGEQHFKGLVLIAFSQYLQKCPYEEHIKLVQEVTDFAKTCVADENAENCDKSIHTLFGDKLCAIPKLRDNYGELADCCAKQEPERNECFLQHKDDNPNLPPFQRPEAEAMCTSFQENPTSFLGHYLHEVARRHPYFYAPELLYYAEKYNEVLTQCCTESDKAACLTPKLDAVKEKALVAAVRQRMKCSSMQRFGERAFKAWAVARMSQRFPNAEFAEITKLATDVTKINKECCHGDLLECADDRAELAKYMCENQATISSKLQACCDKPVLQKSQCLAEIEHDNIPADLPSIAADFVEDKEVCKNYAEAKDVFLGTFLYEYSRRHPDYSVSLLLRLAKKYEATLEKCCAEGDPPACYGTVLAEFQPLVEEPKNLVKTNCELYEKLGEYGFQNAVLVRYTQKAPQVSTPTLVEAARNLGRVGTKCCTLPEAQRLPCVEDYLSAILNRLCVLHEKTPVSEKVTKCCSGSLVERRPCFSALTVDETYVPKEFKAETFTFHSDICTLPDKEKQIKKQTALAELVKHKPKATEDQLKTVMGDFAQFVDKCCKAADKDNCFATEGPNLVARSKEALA
Experimental: as §1, §2

[4] = target: T4, albumin from dog (dog, UniProt P49822 25-608); experiment: SPR (Biacore 2000): dog albumin immobilised to 1053 RU, PEP08296 injected at 40 nM for 5 min, then HBS-EP
T4 construct: also called DSA
T4 sequence (P49822 25-608 limits assumed): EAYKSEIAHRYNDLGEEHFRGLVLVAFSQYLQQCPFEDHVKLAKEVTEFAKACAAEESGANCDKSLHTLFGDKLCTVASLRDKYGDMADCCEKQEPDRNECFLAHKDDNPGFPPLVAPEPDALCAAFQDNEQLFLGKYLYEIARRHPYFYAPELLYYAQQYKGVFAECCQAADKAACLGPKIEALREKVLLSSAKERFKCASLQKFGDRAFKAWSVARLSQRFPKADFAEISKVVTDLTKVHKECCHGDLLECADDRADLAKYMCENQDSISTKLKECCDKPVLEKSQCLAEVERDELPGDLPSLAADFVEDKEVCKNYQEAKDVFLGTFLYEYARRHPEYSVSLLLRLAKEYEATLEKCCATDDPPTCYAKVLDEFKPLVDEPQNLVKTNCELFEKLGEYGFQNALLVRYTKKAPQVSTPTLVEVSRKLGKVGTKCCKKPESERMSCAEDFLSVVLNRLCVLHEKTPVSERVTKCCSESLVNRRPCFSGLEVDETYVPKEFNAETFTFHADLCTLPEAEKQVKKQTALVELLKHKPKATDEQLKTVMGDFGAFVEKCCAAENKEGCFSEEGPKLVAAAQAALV
Experimental: as §1, §2

[5] = target: T5, albumin from mouse (mouse, UniProt P07724 25-608); experiment: SPR (Biacore 2000): mouse albumin immobilised to 858 RU, PEP08296 injected at 40 nM for 5 min, then HBS-EP
T5 construct: also called MSA
T5 sequence (P07724 25-608 limits assumed): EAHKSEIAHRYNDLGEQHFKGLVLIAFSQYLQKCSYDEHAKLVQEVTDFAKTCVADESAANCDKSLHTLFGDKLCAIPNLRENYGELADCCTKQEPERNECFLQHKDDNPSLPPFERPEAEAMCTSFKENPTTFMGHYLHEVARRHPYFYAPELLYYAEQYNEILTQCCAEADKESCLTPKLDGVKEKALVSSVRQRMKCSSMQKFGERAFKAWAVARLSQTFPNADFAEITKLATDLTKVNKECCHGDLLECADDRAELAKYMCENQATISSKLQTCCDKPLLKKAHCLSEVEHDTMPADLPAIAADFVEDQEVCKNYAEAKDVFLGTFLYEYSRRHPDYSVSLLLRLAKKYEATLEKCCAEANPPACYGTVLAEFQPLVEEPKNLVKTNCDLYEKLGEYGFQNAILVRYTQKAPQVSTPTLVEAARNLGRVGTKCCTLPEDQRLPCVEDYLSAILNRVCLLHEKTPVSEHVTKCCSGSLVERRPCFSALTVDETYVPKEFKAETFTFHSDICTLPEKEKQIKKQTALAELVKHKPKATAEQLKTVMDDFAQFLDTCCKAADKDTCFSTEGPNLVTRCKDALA
Experimental: as §1, §2

[6] = target: T2, human serum albumin; experiment: SPR (Biacore 2000): human albumin immobilised to 1130 RU, PEP08296 injected at 40 nM for 5 min, then HBS-EP
Experimental: as §1, §2

[7] = target: T1, albumin from cynomolgus monkey; experiment: SPR (Biacore 2000): cynomolgus albumin immobilised to 1046 RU, PEP08296 injected at 40 nM for 5 min, then HBS-EP
Experimental: as §1, §2

[8] = target: T3, albumin from rat; experiment: SPR (Biacore 2000): rat albumin immobilised to 831 RU, PEP06923 injected at 40 nM for 5 min, then HBS-EP
Experimental: as §1, §2

[9] = target: T4, albumin from dog; experiment: SPR (Biacore 2000): dog albumin immobilised to 1053 RU, PEP06923 injected at 40 nM for 5 min, then HBS-EP
Experimental: as §1, §2

[10] = target: T5, albumin from mouse; experiment: SPR (Biacore 2000): mouse albumin immobilised to 858 RU, PEP06923 injected at 40 nM for 5 min, then HBS-EP
Experimental: as §1, §2

[11] = target: T1, albumin from cynomolgus monkey; experiment: SPR (Biacore 2000): cynomolgus albumin immobilised to 1046 RU, PEP06923 injected at 40 nM for 5 min, then HBS-EP
Experimental: as §1, §2

GSLAEAKEAANAELDSYGVSDFYKRLIDKAKTVEGVEALKDAILAALP (designed binder) [PEP07986]: binds [1].

B1: PEP07975 (designed binder)
chain: ALASAKEAANAELDC(maleimide‑DOTA)YGVSDFYKRLIDKAKTVEGVEALKDAILAALP-NH2
notes: Made by solid phase peptide synthesis; also called DOTA-conjugated PEP07834; maleimide-DOTA-conjugated PEP07834-amide
B1: binds [2].

GSLAEAKEAANAELDC(Mal‑DOTA)YGVSDFYKRLIDKAKTVEGVEALKDAILAALPG (designed binder, also called DOTA-conjugated PEP08185) [PEP08296]: binds [3]; binds [4]; binds [5]. GSLAEAKEAANAELDC(Mal‑DOTA)YGVSDFYKRLIDKAKTVEGVEALKDAILAALPG (designed binder, also called DOTA-conjugated PEP08185) [PEP08296]: binds [6]; binds [7].

B2: PEP06923 (designed binder)
chain: GSSLAEAKVLANRELDKYGVSDFYKRLINKAKTVEGVEALKLHILAALP
notes: Expressed as MGSS-[PP###]; also called non-inventive polypeptide
B2: binds [8]; binds [9]; binds [10]. B2: binds [11].
